Results reported in US20120324600A1, “CONSTITUTIVE SYNTHETIC PLANT PROMOTERS AND METHODS OF USE” (SYNGENTA PARTICIPATIONS AG, priority 2010, published 2012).

Assays:
Type in all cases: in vivo
[1] = tested on: oat HPPD protein expression; assay: oat HPPD protein expression by ELISA in T1 transgenic soybean events; settings: inferred from ELISA and mesotrione tolerance of HOM vs HET siblings
Excerpt: To express a synthetic oat (Avena sativa) 4-hydroxyphenylpyruvate dioxygenase (cAvHPPD) in stably transformed soybean, viral transcriptional and translational enhancers, and a minimal promoter were created by PCR or direct DNA synthesis and combined by standard DNA restriction digestion and ligation reactions. A synthetic plant promoter comprising defined components eFMV (SEQ ID NO: 1), eTMV (SEQ ID NO: 2), the Cauliflower Mosaic Virus 35S enhancer region (e35S) and a minimal promoter (pr35SCMP: Cestrum Yellow Leaf Curl virus TATA-box motif; no CAAT 35S-proximal promoter sequence) were combined to create SEQ ID NO: 3. Subsequently, SEQ ID NO: 3 was modified by digestion with a DNA restriction enzyme XhoI to remove defined components e35S, pr35SCMP (including the TATA-box motif) followed by a standard ligation reaction to create SEQ ID NO: 4. […] One skilled in the art would readily recognize other subelements which would be suitable to use.
The plasmids containing the synthetic plant promoter expression cassettes were transformed into soybean using Agrobacterium tumefaciens. […] Expression of cAvHPPD of surviving T0 plants was quantified by ELISA (Engvall E, Perlman P (1971). “Enzyme-linked immunosorbent assay (ELISA). Quantitative assay of immunoglobulin G”. Immunochemistry 8(9):871-874).
(§1) The first generation transgenic soybean events (T1) harboring SEQ ID NO: 3, SEQ ID NO: 4, SEQ ID NO: 5, SEQ ID NO: 6, or SEQ ID NO: 7 were characterized for segregation analysis, oat HPPD protein expression and tolerance to mesotrione herbicide spray. The green leaf tissues from the first trifoliate of five independent events were sampled to determine the segregation ratios (homozygous, heterozygous or null) of the individual seedlings as determined by zygosity Taqman® assays and oat HPPD protein expression by ELISA. At the V2 stage, the seedlings were sprayed with the HPPD inhibiting herbicide mesotrione and tolerance rating determined approximately 10 days post-application.

[2] = tested on: transgenic soybean events; assay: tolerance to mesotrione herbicide spray of T1 transgenic soybean seedlings; settings: sprayed at V2 stage, rated approximately 10 days post-application
Excerpt: as §1

transgenic corn events = assay: Glyphosate phytotoxicity (percent injury) of transgenic corn events carrying promoter-EPSPS cassettes; settings: maize; for efficiency in promoting expression of an operably linked heterologous sequence compared with unmodified cestrum virus promoter: EPSPS gene, glyphosate tolerance
Excerpt: SEQ ID NO: 8 was synthesized by Gene Art as a SanDI/BamHI fragment then ligated directly into a cloning vector harboring the EPSPS gene (cZmEPSPSct-01) to confer glyphosate tolerance (Terada, et al., (1995) A type I element composed of the hexamer (ACGTCA) and octamer (CGCGGATC) motifs plays a role(s) in meristematic expression of a wheat histone H3 gene in transgenic rice plants. Plant Molecular Biology 27: 17-26). SEQ ID NO: 9 was created by ligation of the xZmH3Cis DNA elements to the prCMP promoter as an NheI fragment such that these elements are 5′ to the TATA-BOX (Brignon, et al., (1993) Nuclease sensitivity and functional analysis of a maize histone H3 gene promoter. Plant Molecular Biology 22: 1007-1015).
See Table 9 for glyphosate phytotoxicity, in terms of percent injury. Plants were sprayed with an appropriate amount of glyphosate (i.e. 4× Touchdown®) at the V4 stage and the V8 stage. Percent injury was measured at 7 and 14 days after the V4 stage glyphosate spray, as well as 7 and 14 days after V8 stage glyphosate spray.

maize = assay: expression of a heterologous sequence in maize
Excerpt: A similar strategy for building synthetic plant promoters for use in maize was implemented.

B1: SEQ ID NO: 4: synthetic plant promoter, subelements eFMV, eTMV; 267 bp (nucleic acid)
DNA: AGCTGCTTGTGGGGACCAGACAAAAAAGGAATGGTGCAGAATTGTTAGGCGCACCTACCAAAAGCATCTTTGCCTTTATTGCAAAGATAAAGCAGATTCCTCTAGTACAAGTGGGGAACAAAATAACGTGGAAAAGAGCTGTCCTGACAGCCCACTCACTAATGCGTATGACGAACGCAGTGACGACCACAAAACTCGAGTATTTTTACAACAATTACCAACAACAACAAACAACAAACAACATTACAATTACTATTTACAATTACA
modifications: synthetic plant promoter
notes: synthetic plant promoter, subelements eFMV, eTMV; 267 bp
transgene silencing in HOM plants [1]: relieve transgene silencing
tolerance to mesotrione herbicide spray [2]: improved tolerance to the HPPD inhibitor herbicide mesotrione

B2: SEQ ID NO: 5: synthetic plant promoter, subelements eFMV, e35S, iUBQ3, pr35SCMP, eTMV; 1017 bp (nucleic acid)
DNA: AGCTGCTTGTGGGGACCAGACAAAAAAGGAATGGTGCAGAATTGTTAGGCGCACCTACCAAAAGCATCTTTGCCTTTATTGCAAAGATAAAGCAGATTCCTCTAGTACAAGTGGGGAACAAAATAACGTGGAAAAGAGCTGTCCTGACAGCCCACTCACTAATGCGTATGACGAACGCAGTGACGACCACAAAACTCGAGACTTTTCAACAAAGGGTAATATCCGGAAACCTCCTCGGATTCCATTGCCCAGCTATCTGTCACTTTATTGTGAAGATAGTGGAAAAGGAAGGTGGCTCCTACAAATGCCATCATTGCGATAAAGGAAAGGCTATCGTTGAAGATGCCTCTGCCGACAGTGGTCCCAAAGATGGACCCCCACCCACGAGGAGCATCGTGGAAAAAGAAGACGTTCCAACCACGTCTTCAAAGCAAGTGGATTGATGTGATATCTCCACTGACGTAAGGGATGACGAACAATCCCACTATCCTTCTGCAGGTCGACTCTAGAGGATCTTATAAATAGGTATATTTTCTGATTCTTTTTGTTTTTGATTCGTATCTGATCTCCAATTTTTGTTATGTGGATTATTGAATCTTTTGTATAAATTGCTTTTGACAATATTGTTCGTTTCGTCAATCCAGCTTCTAAATTTTGTCCTGATTACTAAGATATCGATTCGTAGTGTTTACATCTGTGTAATTTCTTGCTTGATTGTGAAATTAGGATTTTCAAGGACGATCTATTCAATTTTTGTGTTTTCTTTGTTCGATTCTCTCTGTTTTAGGTTTCTTATGTTTAGATCCGTTTCTCTTTGGTGTTGTTTTGATTTCTCTTACGGCTTTTGATTTGGTATATGTTCGCTGATTGGTTTCTACTTGTTCTATTGTTTTATTTCAGGTGGATCCTATAAATAGGAAGTTCATTTCATTTGGAGAGGAAACCTCGAGTATTTTTACAACAATTACCAACAACAACAAACAACAAACAACATTACAATTACTATTTACAATTACA
modifications: synthetic plant promoter
notes: synthetic plant promoter, subelements eFMV, e35S, iUBQ3, pr35SCMP, eTMV; 1017 bp
transgene silencing in HOM plants [1]: relieve transgene silencing
tolerance to mesotrione herbicide spray [2]: improved tolerance to the HPPD inhibitor herbicide mesotrione

B3: SEQ ID NO: 9: synthetic plant promoter for maize, subelements eFMV, e35S, eNOS, prCMP, xZmH3Cis, eTMV; 1294 bp (nucleic acid)
DNA: AGCTGCTTGTGGGGACCAGACAAAAAAGGAATGGTGCAGAATTGTTAGGCGCACCTACCAAAAGCATCTTTGCCTTTATTGCAAAGATAAAGCAGATTCCTCTAGTACAAGTGGGGAACAAAATAACGTGGAAAAGAGCTGTCCTGACAGCCCACTCACTAATGCGTATGACGAACGCAGTGACGACCACAAAACTCGAGACTTTTCAACAAAGGGTAATATCCGGAAACCTCCTCGGATTCCATTGCCCAGCTATCTGTCACTTTATTGTGAAGATAGTGGAAAAGGAAGGTGGCTCCTACAAATGCCATCATTGCGATAAAGGAAAGGCTATCGTTGAAGATGCCTCTGCCGACAGTGGTCCCAAAGATGGACCCCCACCCACGAGGAGCATCGTGGAAAAAGAAGACGTTCCAACCACGTCTTCAAAGCAAGTGGATTGATGTGATATCTCCACTGACGTAAGGGATGACGAACAATCCCACTATCCTTCTGCCGGACCCTCATGAGCGGAGAATTAAGGGAGTCACGTTATGACCCCCGCCGATGACGCGGGACAAGCCGTTTTACGTTTGGAACTGACAGAACCGCAACGAAGCTTTGGCAGACAAAGTGGCAGACATACTGTCCCACAAATGAAGATGGAATCTGTAAAAGAAAACGCGTGAAATAATGCGTCTGACAAAGGTTAGGTCGGCTGCCTTTAATCAATACCAAAGTGGTCCCTACCACGATGGAAAAACTGTGCAGTCGGTTTGGCTTTTTCTGACGAACAAATAAGATTCGTGGCCGACAGGTGGGGGTCCACCATGTGAAGGCATCTTCAGACTCCAATAATGGAGCAATGACGTAAGGGCTTACGAAATAAGTAAGGGTAGTTTGGCATATGCTGGTGGCAGAGGGTGTGCTTCCCTGCTTGGGCGGGCACGCTGGGATGGCGAAAATTTTCGGAAGCGCTGGGATGGCGAAAATTTTCGGAAGCGCTGGGCGCTGGCGCGGGCGGCGGACAACTATGGGTCGTTGGATTGGGAATTGGGATGGAGGGCGAGGGTGTCGCTGCTGGCGGGGGTCGATCCGCGTGTTGAGCGATCTGCGAGGATTATGTCCACTCACCCGTCAGTCTATAAATACTTAGCCCCTCCCTCATTGTTAAGGGAGCAAAATCTCAGAGAGATAGTCCTAGAGAGAGAAAGAGAGCAAGTAGCCTAGAAGTGGATCCACCTCGAGTATTTTTACAACAATTACCAACAACAACAAACAACAAACAACATTACAATTACTATTTACAATTACACATGTAAACC
modifications: synthetic plant promoter
notes: synthetic plant promoter for maize, subelements eFMV, e35S, eNOS, prCMP, xZmH3Cis, eTMV; 1294 bp
evidence of HDGS and HDMS (transgenic corn events): no evidence of HDGS and HDMS
efficiency in promoting expression of an operably linked heterologous sequence compared with unmodified cestrum virus promoter (transgenic corn events): function at least as well on average as the unmodified cestrum virus promoter
efficiency in promoting expression of an operably linked heterologous sequence compared with unmodified cestrum virus promoter (transgenic corn events; listed as 9): as efficient in promoting the expression of an operably linked heterologous sequence as an unmodified cestrum virus promoter

B4: SEQ ID NO: 3: synthetic plant promoter, subelements eFMV, e35S, pr35SCMP, eTMV; 625 bp (nucleic acid)
DNA: AGCTGCTTGTGGGGACCAGACAAAAAAGGAATGGTGCAGAATTGTTAGGCGCACCTACCAAAAGCATCTTTGCCTTTATTGCAAAGATAAAGCAGATTCCTCTAGTACAAGTGGGGAACAAAATAACGTGGAAAAGAGCTGTCCTGACAGCCCACTCACTAATGCGTATGACGAACGCAGTGACGACCACAAAACTCGAGACTTTTCAACAAAGGGTAATATCCGGAAACCTCCTCGGATTCCATTGCCCAGCTATCTGTCACTTTATTGTGAAGATAGTGGAAAAGGAAGGTGGCTCCTACAAATGCCATCATTGCGATAAAGGAAAGGCTATCGTTGAAGATGCCTCTGCCGACAGTGGTCCCAAAGATGGACCCCCACCCACGAGGAGCATCGTGGAAAAAGAAGACGTTCCAACCACGTCTTCAAAGCAAGTGGATTGATGTGATATCTCCACTGACGTAAGGGATGACGAACAATCCCACTATCCTTCTGCAGGTCGACTCTAGAGGATCCTATAAATAGGAAGTTCATTTCATTTGGAGAGGAAACCTCGAGTATTTTTACAACAATTACCAACAACAACAAACAACAAACAACATTACAATTACTATTTACAATTACA
modifications: synthetic plant promoter
notes: synthetic plant promoter, subelements eFMV, e35S, pr35SCMP, eTMV; 625 bp
transgene silencing in HOM plants [1]: indicative of transgene silencing
tolerance to mesotrione herbicide spray [2]: significant initial damage to the homozygous (HOM) compared to the heterozygous (HET) siblings
promotion of expression of a heterologous sequence in maize (maize): successfully used to promote the expression of a heterologous sequence in maize
